Data on one molecule can be found in article PMC4520738.

The series has as its target hDNMT1 351-1600 R582E (Homo sapiens, UniProt P26358 351-1600, R582E). The series can be described thus: EMSA.

Sequence of hDNMT1 351-1600 R582E (P26358 351-1600 R582E): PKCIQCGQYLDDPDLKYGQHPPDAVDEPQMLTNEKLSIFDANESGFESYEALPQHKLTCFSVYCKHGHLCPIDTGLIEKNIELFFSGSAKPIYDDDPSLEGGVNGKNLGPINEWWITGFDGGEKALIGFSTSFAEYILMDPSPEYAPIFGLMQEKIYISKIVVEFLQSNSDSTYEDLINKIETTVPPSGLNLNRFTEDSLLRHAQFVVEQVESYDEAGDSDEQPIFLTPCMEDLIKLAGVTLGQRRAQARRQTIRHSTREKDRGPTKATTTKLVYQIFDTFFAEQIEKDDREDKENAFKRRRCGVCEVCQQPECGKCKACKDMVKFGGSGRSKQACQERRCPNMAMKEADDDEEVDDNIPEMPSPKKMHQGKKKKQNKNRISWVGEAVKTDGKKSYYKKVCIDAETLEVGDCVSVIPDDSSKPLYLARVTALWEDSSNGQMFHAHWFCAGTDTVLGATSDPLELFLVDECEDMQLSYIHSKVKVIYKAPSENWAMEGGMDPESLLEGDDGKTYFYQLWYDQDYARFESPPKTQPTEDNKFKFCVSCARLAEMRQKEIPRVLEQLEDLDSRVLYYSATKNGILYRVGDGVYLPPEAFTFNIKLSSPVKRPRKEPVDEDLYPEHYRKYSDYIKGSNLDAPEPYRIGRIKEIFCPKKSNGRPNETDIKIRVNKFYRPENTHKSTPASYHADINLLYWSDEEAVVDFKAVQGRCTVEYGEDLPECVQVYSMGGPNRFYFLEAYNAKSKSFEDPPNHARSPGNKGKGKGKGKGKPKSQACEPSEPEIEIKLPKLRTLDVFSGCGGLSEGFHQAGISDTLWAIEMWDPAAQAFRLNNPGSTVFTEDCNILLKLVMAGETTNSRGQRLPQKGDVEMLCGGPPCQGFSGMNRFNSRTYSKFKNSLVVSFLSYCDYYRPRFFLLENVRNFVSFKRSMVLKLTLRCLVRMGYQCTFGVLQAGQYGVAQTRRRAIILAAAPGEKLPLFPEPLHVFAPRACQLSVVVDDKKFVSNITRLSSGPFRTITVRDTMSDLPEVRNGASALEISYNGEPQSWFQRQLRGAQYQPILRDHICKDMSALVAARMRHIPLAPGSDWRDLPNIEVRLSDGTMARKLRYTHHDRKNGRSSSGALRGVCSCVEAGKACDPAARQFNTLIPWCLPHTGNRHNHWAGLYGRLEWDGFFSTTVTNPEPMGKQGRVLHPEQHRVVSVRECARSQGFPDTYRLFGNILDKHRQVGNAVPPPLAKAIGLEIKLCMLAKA

B1: 26-mer hemimethylated CpG DNA (dsDNA)
DNA 1: ACACCAAGCCTGCGGAGGCTCACGGA
DNA 2: TCCGTGAGCCTCCGCAGGCTTGGTGT
modifications: 5-methyl-2'-deoxycytidine at position 13 of strand 1 (upper)
In the case of B1, the binding result is “binds”.
